3 substances from patent US20260234211A1, “POLYPEPTIDE HAVING MODIFIED STRUCTURE AND USE THEREOF” (Guangdong Raynovent Biotech Co., Ltd., priority 2023, published 2026) can be followed below.

Holding throughout (assay): cell-based or functional assay
One test addresses GCG receptor (GCGR).
In a further test the target is GLP-1 receptor (GLP-1R).
Another test deals with T1, GIP receptor (GIPR).
T1 sequence (P48546 whole entry, species assumed, looked up): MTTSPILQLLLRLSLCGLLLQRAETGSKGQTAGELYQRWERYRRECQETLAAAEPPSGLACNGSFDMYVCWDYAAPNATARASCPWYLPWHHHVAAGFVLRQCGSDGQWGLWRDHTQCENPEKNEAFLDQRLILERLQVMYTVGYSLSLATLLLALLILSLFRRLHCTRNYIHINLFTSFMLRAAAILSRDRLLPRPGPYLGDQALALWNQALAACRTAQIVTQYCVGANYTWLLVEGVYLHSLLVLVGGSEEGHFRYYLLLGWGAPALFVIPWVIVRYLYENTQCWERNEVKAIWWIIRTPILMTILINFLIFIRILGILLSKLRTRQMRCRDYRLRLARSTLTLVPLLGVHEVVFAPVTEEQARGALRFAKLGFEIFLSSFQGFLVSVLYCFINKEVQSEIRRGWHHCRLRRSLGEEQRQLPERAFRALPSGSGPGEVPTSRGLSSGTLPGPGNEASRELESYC

The substance LY3437943 (peptide) returned a GCG EC50 (nM), cAMP assay on HEK293 cells with GCGR with GCG receptor (GCGR) of 0.031 nM. Also, the GLP-1 EC50 (nM), cAMP assay on HEK293 cells with GLP-1R in the test with GLP-1 receptor (GLP-1R) was found to be 0.014 nM. In the test with GIP receptor (GIPR), this substance had a GIP-1 EC50 (nM), cAMP assay on CHO cells with GIPR of 0.001 nM.
In the test with GCG receptor (GCGR), “Human Glucagon (from UniProt P01275 53-81) (ligand)” gave a GCG EC50 (nM), cAMP assay on HEK293 cells with GCGR of 0.001 nM.
“Human GLP-1 (7-37) (from UniProt P01275 21-180) (ligand)” had a GLP-1 EC50 (nM), cAMP assay on HEK293 cells with GLP-1R with GLP-1 receptor (GLP-1R) of 0.001 nM.
